Data as given in US9090705B2.

What was measured:
Aspart precursor [1] = target: Aspart precursor
Aspart precursor [2] = target: Aspart precursor; remark: listed apart in the source

| Yield (%) of Lispro, trypsin and Carboxypeptidase B added together (Lispro precursor) [%] | Yield (%) of Glulisine, trypsin and Carboxypeptidase B added together (Glulisine precursor) [%] | Yield (%) of Aspart, trypsin and Carboxypeptidase B added together (Aspart precursor [1]) [%] | conversion of the precursor by trypsin alone (chromatographic profile after 8 hr) (Aspart precursor [2]) [%] | Substance |
| --- | --- | --- | --- | --- |
| 78 | 78 | 75 |  | Carboxypeptidase B (enzyme) |
|  |  |  | 45 | Trypsin (enzyme) |
